Columns and labels:
[1] = target: mutant His-p32 (K89A/K93A) (mouse) (UniProt O35658); experiment: SEC
[2] = target: wild-type His-p32 (mouse) (UniProt O35658); experiment: SEC
[3] = target: T1, p32 (gC1qR) wild-type (Mus musculus, UniProt Q8R5L1 72-279); experiment: EMSA
T1 sequence: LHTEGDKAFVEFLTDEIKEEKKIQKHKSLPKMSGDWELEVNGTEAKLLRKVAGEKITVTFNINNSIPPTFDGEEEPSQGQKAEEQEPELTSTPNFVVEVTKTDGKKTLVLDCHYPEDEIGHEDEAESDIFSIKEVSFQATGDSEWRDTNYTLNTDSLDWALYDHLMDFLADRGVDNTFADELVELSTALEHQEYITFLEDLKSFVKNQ

[4] = target: T1, p32 (gC1qR) wild-type; experiment: competition
[5] = target: T1, p32 (gC1qR) wild-type; experiment: competition; remark: listed apart in the source
[6] = target: T1, p32 (gC1qR) wild-type; experiment: EMSA; remark: listed apart in the source

**Q.** Which stoichiometry N [1] does the source give for “mutant His-p32 (K89A/K93A) (from UniProt O35658 71-278) (natural protein)” here?
**A.** The stoichiometry N was 3.

**Q.** How did the stoichiometry N [2] turn out when “wild-type His-p32 (from UniProt O35658 71-278) (natural protein)” was run?
**A.** Its stoichiometry N is 3.

B1: 22-mer poly(A) RNA (ssRNA)
RNA: AAAAAAAAAAAAAAAAAAAAAA
**Q.** B1 was tested. Which Kd [3] did it give?
**A.** The Kd was roughly 6 µM.

B2: 40-mer RNA (random) (ssRNA)
RNA: GGGAGAAAAACAAAACAAAACAAAACUAGCACCGUAAAGC
**Q.** Does B2 bind [4]?
**A.** Result: binds

B3: 22-mer poly(A) DNA (ssDNA)
DNA: AAAAAAAAAAAAAAAAAAAAAA
**Q.** Does B3 bind [5]?
**A.** Result: no binding

B4: 14-mer RNA (random) (ssRNA)
RNA: GUUUACGGUGCUA
**Q.** Does B4 bind [6]?
**A.** Result: binds
